Data: article PMC11865173, “Improving the hydrophilic microenvironment surrounding the catalytic site of fructosyltransferase enhances its catalytic ability” (Biotechnology Letters, 2025)

Columns and labels:
[1] = system: T1, OC[C@H]1O[C@@](CO)(O[C@H]2O[C@H](CO)[C@@H](O)[C@H](O)[C@H]2O)[C@@H](O)[C@@H]1O; assay: glucose release measured by biosensor, Michaelis-Menten nonlinear fit; type: biochemical, Aspergillus niger; conditions: 50 °C, pH 5.5, 5 min, transfructosylation
T1 construct: codon-optimised synthetic gene downstream of alpha-factor in pPIC9K, secreted from Pichia pastoris GS115; purified by size exclusion chromatography; model covers residues 25-628; no tag mentioned
Excerpt: (§1) glucose release measured by biosensor, Michaelis-Menten nonlinear fit on SucC

[2] = substrate: OC[C@H]1O[C@@](CO)(O[C@H]2O[C@H](CO)[C@@H](O)[C@H](O)[C@H]2O)[C@@H](O)[C@@H]1O; assay: as above; type: biochemical, Aspergillus niger; conditions: 50 °C, pH 5.5, 5 min, transfructosylation
Excerpt: as §1

SucC (Aspergillus niger; C66S)
Km [1]: 71.14 mM
kcat [1]: 2.27 s⁻¹
kcat/Km [1]: 32 M⁻¹ s⁻¹

B1: SucC (Aspergillus niger) (protein)
chain: MQTRASVVIDYNVAPPNLSTLPNGSLFETWRPRAHVLPPNGQIGDPCLHYTDPSTGLFHVGFLHDGSGISSATTDDLATYKDLNQGNQVIVPGGINDPVAVFDGSVIPSGINGLPTLLYTSVSFLPIHWSIPYTRGSETQSLAVSSDGGSNFTKLDQGPVIPGPPFAYNVTAFRDPYVFQNPTLDSLLHSKNNTWYTVISGGLHGKGPAQFLYRQYDPDFQYWEFLGQWWHEPTNSTWGNGTWAGRWAFNFETGNVFSLDEYGYNPHGQIFSTIGTEGSDQPVVPQLTSIHDMLWVSGNVSRNGSVSFTPNMAGFLDWGFSSYAAAGKVLPSTSLPSTKSGAPDRFISYVWLSGDLFEQAEGFPTNQQNWTGTLLLPRELRVLYIPNVVDNALARESGASWQVVSSDSSAGTVELQTLGISIARETKAALLSGTSFTESDRTLNSSGVVPFKRSPSEKFFVLSAQLSFPASARGSGLKSGFQILSSELESTTVYYQFSNESIIVDRSNTSAAARTTDGIDSSAEAGKLRLFDVLNGGEQAIETLDLTLVVDNSVLEIYANGRFALSTWVRSWYANSTNISFFQNGVGGVAFSNVTVSEGLYDAWPDRQS
notes: codon-optimised synthetic gene downstream of alpha-factor in pPIC9K, secreted from Pichia pastoris GS115; purified by size exclusion chromatography; model covers residues 25-628; no tag mentioned
Km [2]: 82.20 mM
kcat [2]: 1.87 s⁻¹
kcat/Km [2]: 22.8 M⁻¹ s⁻¹
